Measured values: PMC12316734, “Lipase Activation by Poly(Methyl Methacrylate) in Dispersed Solution: Mechanistic Insights by Fluorescence Spectroscopy” (Applied Biochemistry and Biotechnology, 2025)

Columns and labels:
Assay in all cases: fluorogenic hydrolysis assay, Michaelis-Menten fit
Settings in all cases: pH 7, 20 °C, no PMMA, 2% DMSO, 500 nM enzyme
[1] = substrate: CCCC(=O)Oc1ccc2c(C)cc(=O)oc2c1; assay type: biochemical, Moesziomyces antarcticus
From the text: fluorogenic hydrolysis assay, Michaelis-Menten fit on Candida antarctica lipase B (CalB)

[2] = substrate: CCCC(=O)Oc1ccc2c(C)cc(=O)oc2c1; assay type: biochemical, Thermomyces lanuginosus
From the text: fluorogenic hydrolysis assay, Michaelis-Menten fit on Thermomyces lanuginosus lipase (TLL)

[3] = substrate: CCCC(=O)Oc1ccc2c(C)cc(=O)oc2c1; assay type: biochemical, Bacillus subtilis
From the text: fluorogenic hydrolysis assay, Michaelis-Menten fit on Bacillus subtilis lipase A (BSLA WT)

B1: Candida antarctica lipase B (CalB) (Moesziomyces antarcticus) (protein)
chain: LPSGSDPAFSQPKSVLDAGLTCQGASPSSVSKPILLVPGTGTTGPQSFDSNWIPLSTQLGYTPCWISPPPFMLNDTQVNTEYMVNAITALYAGSGNNKLPVLTWSQGGLVAQWGLTFFPSIRSKVDRLMAFAPDYKGTVLAGPLDALAVSAPSVWQQTTGSALTTALRNAGGLTQIVPTTNLYSATDEIVQPQVSNSPLDSSYLFNGKNVQAQAVCGPLFVIDHAGSLTSQFSYVVGRSALRSTTGQARSADYGITDCNPLPANDLTPEQKVAAAALLAPAAAAIVAGPKQNCEPDLMPYARPFAVGKRTCSGIVTP
notes: commercial lipase B (Strem Chemicals), free enzyme in solution
Km [1]: 26.6 ± 1.77 µM | Vmax [1]: 5.43 µM/min | Vmax/Km [1]: 0.2 min⁻¹

B2: Thermomyces lanuginosus lipase (TLL) (Thermomyces lanuginosus) (protein)
chain: EVSQDLFNQFNLFAQYSAAAYCGKNNDAPAGTNITCTGNACPEVEKADATFLYSFEDSGVGDVTGFLALDNTNKLIVLSFRGSRSIENWIGNLNFDLKEINDICSGCRGHDGFTSSWRSVADTLRQKVEDAVREHPDYRVVFTGHSLGGALATVAGADLRGNGYDIDVFSYGAPRVGNRAFAEFLTVQTGGTLYRITHTNDIVPRLPPREFGYSHSSPEYWIKSGTLVPVTRNDIVKIEGIDATGGNNQPNIPDIPAHLWYFGLIGTCL
notes: commercial lipase (gift of ASA Spezialenzyme), desalted; predominantly dimer in FCS
Km [2]: 20.8 ± 1.67 µM | Vmax [2]: 4.16 µM/min | Vmax/Km [2]: 0.2 min⁻¹

B3: Bacillus subtilis lipase A (BSLA WT) (Bacillus subtilis subsp. subtilis str. 168) (protein)
chain: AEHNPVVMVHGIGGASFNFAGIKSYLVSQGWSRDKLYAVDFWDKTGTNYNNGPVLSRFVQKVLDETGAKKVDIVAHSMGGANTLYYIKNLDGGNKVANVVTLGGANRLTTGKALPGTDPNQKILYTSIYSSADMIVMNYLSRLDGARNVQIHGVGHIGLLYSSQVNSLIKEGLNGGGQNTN
Km [3]: 39.2 ± 3.61 µM | Vmax [3]: 97.7 µM/min | Vmax/Km [3]: 2.49 min⁻¹
